B1: CCL3 (ligand)
chain: SLAADTPTACCFSYTSRQIPQNFIADYFETSSQCSKPGVIFLTKRSRQVCADPSEEWVQKYVSDLELSA
B2: CCL3/CCL5 chimera (ligand)
chain: ASLAADTPTACCFAYIARPLPRAHIKEYFYTSGKCSNPAVVFVTRKNRQVCANPEKKWVREYINSLEMS
B3: CCL18 (protein)
chain: AQVGTNKELCCLVYTSWQIPQKFIVDYSETSPQCPKPGVILLTKRGRQICADPNKKWVQKYISDLKLNA
modifications: disulfide (positions not given here)
B4: CCL4 (protein)
chain: APMGSDPPTACCFSYTARKLPRNFVVDYYETSSLCSQPAVVFQTKRSKQVCADPSESWVQEYVYDLELN
modifications: disulfide (positions not given here)
B5: Evasin-1 WT (natural protein)
chain: EDDEDYGDLGGCPFLVAENKTGYPTIVACKQDCNGTTETAPNGTRCFSIGDEGLRRMTANLPYDCPLGQCSNGDCIPKETYEVCYRRNWRDKKN
B6: Δ4CCL3 (ligand)
chain: ADTPTACCFSYTSRQIPQNFIADYFETSSQCSKPGVIFLTKRSRQVCADPSEEWVQKYVSDLELSA

Key:
Evasin-1 WT [1] = biological target: B5; assay: SPR
Evasin-1 WT [2] = biological target: B5; assay: SPR
Evasin-1 F14A W89A [3] = biological target: T1, Evasin-1 F14A W89A (Rhipicephalus sanguineus, UniProt P0C8E7 21-114, F14A | W89A); assay: SPR; immobilized CCL3
Evasin-1 F14A W89A [4] = biological target: T1, Evasin-1 F14A W89A; assay: SPR; immobilized CCL3; remark: listed apart in the source
CCL3 [5] = biological target: B1; assay: SPR; immobilized CCL3
CCL3 [6] = biological target: B1; assay: SPR; immobilized CCL3

| Binder | koff (Evasin-1 WT [1]) [s⁻¹] | Kd (Evasin-1 WT [2]) [nM] | koff (Evasin-1 F14A W89A [3]) [s⁻¹] | Kd (Evasin-1 F14A W89A [4]) [nM] | koff (CCL3 [5]) [s⁻¹] | Kd (CCL3 [6]) [nM] |
| --- | --- | --- | --- | --- | --- | --- |
| B1 | 0.00243 | 0.12 | 0.0146 | 32.2 |  |  |
| B2 | 0.0038 | 1.02 |  |  |  |  |
| B3 | 0.0111 | 3.21 |  |  |  |  |
| B4 | 0.0022 | 0.51 |  |  |  |  |
| B5 |  |  |  |  | 0.00276 | 8 |
| B6 | 0.00041 | 0.17 |  |  |  |  |
